This data set is described as follows: protein stability index of a GFP-peptide fusion (yeast GPS) (PSI 1-4); higher = more stable; sorted into four equal gates, so the index is relative within each strain. In outline:
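Each library plasmid carries Cherry plus GFP with a tiled 17-residue yeast protein peptide fused downstream, and the pooled library was carried in yeast. Mid-log cultures in leucine-free medium were sorted into four equal gates by GFP/Cherry ratio. Reads from Illumina sequencing of PCR-amplified plasmids from each gate were assigned to strains by barcodes. Per peptide, the protein stability index was computed as the summed products of gate read frequency and gate number.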

± gives the uncertainty stated by the source.

Drawing on the supplement of paper PMC9732359, this text covers protein stability index for 25 sequences.

As to ERRVLLSAPLSKELRAQ [RPL26B], the protein stability index by setting is: (doa10∆) 2.87 ± 0.07; (pdr5∆) 2.9 ± 0.047; (san1∆) 2.89 ± 0.055; (ubr1∆) 2.79 ± 0.043.
The corresponding values for ERSELLRLFNAPDSEYL [SNF2] are 3.02 ± 0.044, 2.8 ± 0.051, 2.87 ± 0.045 and 2.77 ± 0.045.
On to ERSSKRLAKKPSMKKIK [SIR3], for which the protein stability index is, setting by setting: (doa10∆) 3.18 ± 0.08; (pdr5∆) 3.12 ± 0.084; (san1∆) 3.06 ± 0.057; (ubr1∆) 3.06 ± 0.079.
On to ERVQSDENKDDELVKLL [SRP68], for which the protein stability index is 3.52 ± 0.17 (doa10∆), 3.42 ± 0.12 (pdr5∆) and 2.96 ± 0.23 (ubr1∆).
On to ESDETTTDNNNSGNSNS [RPT1], for which the protein stability index by setting is: (doa10∆) 3.12 ± 0.094; (pdr5∆) 3.11 ± 0.098; (san1∆) 2.66 ± 0.22; (ubr1∆) 3.13 ± 0.051.
Take ESEYREFESELKNVEET [ESC2]: the protein stability index came to 3.54 ± 0.25 (doa10∆), 3.47 ± 0.2 (pdr5∆), 3.2 ± 0.18 (san1∆) and 3.31 ± 0.15 (ubr1∆).
Turning to ESFKGLQPFWFRVNNAS [ECM29], the protein stability index (doa10∆) came to 2.05 ± 0.13, the protein stability index (pdr5∆) amounted to 1.92 ± 0.11 and the protein stability index (ubr1∆) stood at 2.09 ± 0.15.
In the case of ESINNVVDQLWSEISNE [RPN2], the protein stability index reads like this: (doa10∆) 2.77 ± 0.065; (pdr5∆) 2.94 ± 0.053; (san1∆) 2.83 ± 0.096; (ubr1∆) 2.63 ± 0.041.
Consider ESKDSIQDLIVKLKQQK [SMC3], for which the protein stability index by setting is: (doa10∆) 3.35 ± 0.1; (pdr5∆) 3.12 ± 0.13; (san1∆) 3.09 ± 0.14; (ubr1∆) 3.35 ± 0.15.
As to ESKMRQQEAKYRNNEPA [YDL088C/ASM4], the protein stability index was determined as 3.13 ± 0.074 (doa10∆), 3.12 ± 0.063 (pdr5∆), 2.84 ± 0.075 (san1∆) and 2.88 ± 0.059 (ubr1∆).
On to ESLKKSPIFEVLSDDAK [ARP9], for which the protein stability index worked out at 3.01 ± 0.072 (doa10∆), 3.15 ± 0.079 (pdr5∆), 3.06 ± 0.073 (san1∆) and 3.32 ± 0.058 (ubr1∆).
In the same order, the values of ESMDFLVLADAFDIELS [YCS4] are 2.32 ± 0.039, 2.82 ± 0.043, 2.64 ± 0.055 and 2.64 ± 0.039.
In the same order, the values of ESPNYCNALIHIKFSAG [SRB4] are 1.66 ± 0.042, 1.83 ± 0.039, 1.93 ± 0.069 and 2.04 ± 0.034.
The corresponding values for ESQPKQTGTRRNSKLLN [MCD1] are 3.29 ± 0.099, 3.16 ± 0.12, 3.19 ± 0.079 and 3.12 ± 0.076.
As to ESSNEAKKTIQNPLNKS [SIR4], the protein stability index came to 3.12 ± 0.071 (doa10∆), 2.76 ± 0.059 (pdr5∆), 2.95 ± 0.047 (san1∆) and 3.11 ± 0.05 (ubr1∆).
For the sequence ESVIEQIVKYARKGLTP [RPS13], the protein stability index was determined as 3.13 ± 0.058 (doa10∆), 2.94 ± 0.073 (pdr5∆), 2.76 ± 0.052 (san1∆) and 2.81 ± 0.044 (ubr1∆).
As to ETAERNIIQAKRDAKAA [RPL7A], the protein stability index is 2.06 ± 0.21 (pdr5∆) and 1.93 ± 0.16 (san1∆).
Turning to ETEFPPFREFLQVLIDQ [ECM29], the protein stability index is, setting by setting: (doa10∆) 3.46 ± 0.19; (pdr5∆) 3.45 ± 0.16; (san1∆) 3.2 ± 0.095; (ubr1∆) 3.27 ± 0.12.
In the same order, the values of ETISAIEHPMTSAIEVL [RPN1] are 1.49 ± 0.048, 1.72 ± 0.042, 1.76 ± 0.071 and 1.8 ± 0.044.
In the same order, the values of ETITTKRVPNPNFLGNC [SWP82] are 2.68 ± 0.054, 2.58 ± 0.047, 2.18 ± 0.05 and 2.32 ± 0.048.
In the same order, the values of ETLEHNPVALEQKLVDL [BRR2] are 2.15 ± 0.092, 2.79 ± 0.077, 2.43 ± 0.074 and 2.35 ± 0.11.
The sequence ETLSIFTNVPLNLEQVT [YJL039C/NUP192] had a protein stability index (doa10∆) of 2.33 ± 0.044, a protein stability index (pdr5∆) of 2.53 ± 0.049, a protein stability index (san1∆) of 2.33 ± 0.055 and a protein stability index (ubr1∆) of 2.42 ± 0.044.
ETSSDGSKSDGSAATSG [RPN1] gave a protein stability index (doa10∆) of 3.39 ± 0.053, a protein stability index (pdr5∆) of 3.4 ± 0.055, a protein stability index (san1∆) of 3.62 ± 0.048 and a protein stability index (ubr1∆) of 3.3 ± 0.036.
For the sequence ETTLGEMAEKIDFTLLN [PRP8], the protein stability index by setting is: (doa10∆) 3.12 ± 0.093; (pdr5∆) 3.17 ± 0.1; (san1∆) 3.19 ± 0.098; (ubr1∆) 2.71 ± 0.082.
The corresponding values for ETVPDNVKTSVSQLYRI [RPO31] are 2.92 ± 0.1, 3.16 ± 0.13, 3.21 ± 0.078 and 3.2 ± 0.069.
